# Laboratory results: patent US20110123542A1
# Target: T1, CCR6 receptor on human cancer cell lines (PC3, HL60, HT-29, NB4) (human) (UniProt P51684)
# T1 sequence (looked up): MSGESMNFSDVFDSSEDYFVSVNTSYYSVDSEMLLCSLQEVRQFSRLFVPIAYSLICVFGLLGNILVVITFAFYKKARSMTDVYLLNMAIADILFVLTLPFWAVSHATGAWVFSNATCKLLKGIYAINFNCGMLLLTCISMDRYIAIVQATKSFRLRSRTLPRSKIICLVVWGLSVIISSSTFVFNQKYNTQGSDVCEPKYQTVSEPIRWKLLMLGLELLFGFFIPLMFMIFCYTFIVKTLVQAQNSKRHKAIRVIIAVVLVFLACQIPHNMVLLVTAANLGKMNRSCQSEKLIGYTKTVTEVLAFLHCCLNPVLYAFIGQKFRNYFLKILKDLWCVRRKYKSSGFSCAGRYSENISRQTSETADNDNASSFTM
# Assay: cell-based or functional assay
substance,measurement,value
"CCL20 (PeproTech EC, London, UK) (from UniProt P78556 27-96) (ligand)","BrdU incorporation of PC3 cells, CCL20 5 and 50 ng/ml",1.76 fold
same,"adhesion of HL60 cells to collagen I, CCL20 250 ng/ml",1.6 fold
same,"adhesion of HL60 cells to fibronectin, CCL20 500 ng/ml",2 fold
same,"adhesion of PC3 cells to collagen I, CCL20 50 ng/ml",2.2 fold
same,"adhesion of PC3 cells to collagen I, CCL20 500 ng/ml",2.09 fold
same,"adhesion of PC3 cells to fibronectin, CCL20 500 ng/ml",1.45 fold
